Measured values: patent publication US20240124605A1 (published 2024)

What was measured:
[1] = target: T1, CD123 expressed on the surface of cells (OCI-AML2, MOLM13, NALM6-CD123+) (human, UniProt P26951 19-378); assay: flow cytometry
T1 chain: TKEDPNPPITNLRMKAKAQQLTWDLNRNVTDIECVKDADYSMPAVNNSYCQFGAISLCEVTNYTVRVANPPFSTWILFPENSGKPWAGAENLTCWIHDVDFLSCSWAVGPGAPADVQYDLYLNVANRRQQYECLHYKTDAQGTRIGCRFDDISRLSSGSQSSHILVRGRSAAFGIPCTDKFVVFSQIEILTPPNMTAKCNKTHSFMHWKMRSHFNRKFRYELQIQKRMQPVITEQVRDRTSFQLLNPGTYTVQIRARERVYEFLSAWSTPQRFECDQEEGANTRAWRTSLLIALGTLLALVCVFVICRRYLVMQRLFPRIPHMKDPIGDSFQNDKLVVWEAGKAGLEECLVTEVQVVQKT

[2] = target: T2, CD123-Fc (Sino Biological) (human, UniProt P26951 19-305); assay: BLI (Octet), CD123-Fc captured on AHC sensor, Adapter 500-0.69 nM in solution, global 1:1 fit, 25 C
T2 construct: Bought reagent; not shown: Fc of the bought fusion (detected with anti-human Fc, captured on AHC sensor)
T2 sequence: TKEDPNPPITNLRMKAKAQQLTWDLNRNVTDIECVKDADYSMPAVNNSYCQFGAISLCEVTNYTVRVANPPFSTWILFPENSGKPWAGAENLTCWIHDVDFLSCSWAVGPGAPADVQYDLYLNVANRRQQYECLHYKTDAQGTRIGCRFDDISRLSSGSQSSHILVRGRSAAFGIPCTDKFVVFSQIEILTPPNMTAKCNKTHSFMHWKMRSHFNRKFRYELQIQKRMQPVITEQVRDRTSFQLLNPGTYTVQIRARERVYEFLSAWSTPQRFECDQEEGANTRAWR
Procedure: To assess the kinetics of CD123 binding, Adapter proteins comprising the D domains were analyzed using Bio-Layer Interferometry (BLI). Adapter proteins comprising a CD123-binding D domain and a P26(Q26-V229) AFP polypeptide (SEQ ID NO: 39) were generated through transient transfection of HEK-293 cells, followed by Ni-Sepharose Excel (Cytiva) and SEC chromatography. BLI experiments were performed using an Octet RED386 (Sartorius). All experiments were performed at 25° C. in kinetic buffer (PBS, 0.1% BSA, 0.02% tween 20) under constant 1000 rpm agitation. CD123-Fc (20 nM) was captured on an AHC sensor (Sartorius) for 250 seconds to a loading density of ˜0.8 nm. […] The surface was regenerated by 3 rounds of 10 seconds of 10 mM Glycine pH 1.5, followed by kinetic buffer. The data was analyzed using a global fit with a 1:1 interaction model from Sartorius Octet Analysis studio.

[3] = target: T2, CD123-Fc (Sino Biological); assay: method not stated in the sentence (BLI of Adapters follows)
[4] = target: T2, CD123-Fc (Sino Biological); assay: ELISA of MBP fusions for binding to CD123 (FIG. 3)
Procedure: (§1) Parent and mutated variant D domains were expressed as MBP fusions in E. coli (T7 Express, New England Biolabs) by either IPTG (isopropylthio-(3-galactoside) induction for 4 hours at 37° C. in Luria broth containing antibiotics and 0.2% glucose or through auto-induction for 16 hours at 30° C. using MagicMedia (Life Technologies). Post induction, cells were pelleted, washed and resuspended in “leak-out buffer” comprising 200 mM Tris pH 7.5 and 20 mM EDTA. After incubation at 30° C. for 16 hours, supernatant containing MBP fusion proteins were assayed by ELISA for both target binding and expression. Supernatants were added to 96-well Immulon 4HBX microtiter plates coated with anti-MBP polyclonal antibody (Abcam) at 0.0032 ug/ml. Followed by washing, bound MBP fusion proteins were detected either with CD123-Fc (Sino Biological)+anti-human Fc HRP (Abcam) to assess CD123 binding, or with anti-MBP-HRP (New England Biolabs) to assess MBP fusion protein expression.

[5] = target: T2, CD123-Fc (Sino Biological); assay: ELISA of MBP fusions normalized for protein concentration, serial dilution
Procedure: as §1

Binder | EC50 [1] | Kd [2] | koff [2] | kon [2] | fold enhancement of affinity over that of 6T1D [3] | binding result [4] | binding result [5]
Adapter protein comprising the 6T1D D domain and a P26(Q26-V229) AFP polypeptide (designed binder, also called parental D domain (6T1D); not shown: His tag (purified on Ni-Sepharose)) MGSWDEFGRRLYAIEWQLYALGGTEAELAAFEKEIAAFESELQAYKGKGNPEVEKLREIAAVIRENLQAYRHNQESQALAKRSCGLFQKLGEYYLQNAFLVAYTKKAPQLTSSELMAITRKMAATAATCCQLSEDKLLACGEGAADIIIGHLCIRHEMTPVNPGVGQCCTSSYANRRPCFSSLVVDETYVPPAFSDDKFIFHKDLCQAQGVALQTMKQEFLINLVKQKPQITEEQLEAVIADFSGLLEKCCQGQEQEVCFAEEGQKLISKTRAALGV | 2.61 µg/mL | 7.6 nM | 0.00105 s⁻¹ | 139000 M⁻¹ s⁻¹ |  |  | 
Adapter protein comprising the 0C8S D domain and a P26(Q26-V229) AFP polypeptide (designed binder, also called 0085; 6T1D(G8S, K48E, N50S, I59L); not shown: His tag (purified on Ni-Sepharose)) MGSWDEFSRRLYAIEWQLYALGGTEAELAAFEKEIAAFESELQAYKGEGSPEVEKLRELAAVIRENLQAYRHNQESQALAKRSCGLFQKLGEYYLQNAFLVAYTKKAPQLTSSELMAITRKMAATAATCCQLSEDKLLACGEGAADIIIGHLCIRHEMTPVNPGVGQCCTSSYANRRPCFSSLVVDETYVPPAFSDDKFIFHKDLCQAQGVALQTMKQEFLINLVKQKPQITEEQLEAVIADFSGLLEKCCQGQEQEVCFAEEGQKLISKTRAALGV | 2.44 µg/mL | 1 nM | 0.000151 s⁻¹ | 146000 M⁻¹ s⁻¹ |  |  | 
Adapter protein comprising the 1F9I D domain and a P26(Q26-V229) AFP polypeptide (designed binder, also called 6T1D(L21Q, I59L); not shown: His tag (purified on Ni-Sepharose)) MGSWDEFGRRLYAIEWQLYAQGGTEAELAAFEKEIAAFESELQAYKGKGNPEVEKLRELAAVIRENLQAYRHNQESQALAKRSCGLFQKLGEYYLQNAFLVAYTKKAPQLTSSELMAITRKMAATAATCCQLSEDKLLACGEGAADIIIGHLCIRHEMTPVNPGVGQCCTSSYANRRPCFSSLVVDETYVPPAFSDDKFIFHKDLCQAQGVALQTMKQEFLINLVKQKPQITEEQLEAVIADFSGLLEKCCQGQEQEVCFAEEGQKLISKTRAALGV |  | 7.6 nM | 0.000646 s⁻¹ | 85200 M⁻¹ s⁻¹ |  |  | 
Adapter protein comprising the 3F4N D domain and a P26(Q26-V229) AFP polypeptide (designed binder, also called 6T1D(N50S); not shown: His tag (purified on Ni-Sepharose)) MGSWDEFGRRLYAIEWQLYALGGTEAELAAFEKEIAAFESELQAYKGKGSPEVEKLREIAAVIRENLQAYRHNQESQALAKRSCGLFQKLGEYYLQNAFLVAYTKKAPQLTSSELMAITRKMAATAATCCQLSEDKLLACGEGAADIIIGHLCIRHEMTPVNPGVGQCCTSSYANRRPCFSSLVVDETYVPPAFSDDKFIFHKDLCQAQGVALQTMKQEFLINLVKQKPQITEEQLEAVIADFSGLLEKCCQGQEQEVCFAEEGQKLISKTRAALGV | 1.83 µg/mL | 1.3 nM | 0.000275 s⁻¹ | 213000 M⁻¹ s⁻¹ |  |  | 
Adapter protein comprising the 4I0K D domain and a P26(Q26-V229) AFP polypeptide (designed binder, also called 6T1D(W16S); not shown: His tag (purified on Ni-Sepharose)) MGSWDEFGRRLYAIESQLYALGGTEAELAAFEKEIAAFESELQAYKGKGNPEVEKLREIAAVIRENLQAYRHNQESQALAKRSCGLFQKLGEYYLQNAFLVAYTKKAPQLTSSELMAITRKMAATAATCCQLSEDKLLACGEGAADIIIGHLCIRHEMTPVNPGVGQCCTSSYANRRPCFSSLVVDETYVPPAFSDDKFIFHKDLCQAQGVALQTMKQEFLINLVKQKPQITEEQLEAVIADFSGLLEKCCQGQEQEVCFAEEGQKLISKTRAALGV | 4.26 µg/mL | 14 nM | 0.00252 s⁻¹ | 177000 M⁻¹ s⁻¹ |  |  | 
Adapter protein comprising the 4R8U D domain and a P26(Q26-V229) AFP polypeptide (designed binder, also called 6T1D(K48E, N50S); not shown: His tag (purified on Ni-Sepharose)) MGSWDEFGRRLYAIEWQLYALGGTEAELAAFEKEIAAFESELQAYKGEGSPEVEKLREIAAVIRENLQAYRHNQESQALAKRSCGLFQKLGEYYLQNAFLVAYTKKAPQLTSSELMAITRKMAATAATCCQLSEDKLLACGEGAADIIIGHLCIRHEMTPVNPGVGQCCTSSYANRRPCFSSLVVDETYVPPAFSDDKFIFHKDLCQAQGVALQTMKQEFLINLVKQKPQITEEQLEAVIADFSGLLEKCCQGQEQEVCFAEEGQKLISKTRAALGV | 1.9 µg/mL | 1.2 nM | 0.000304 s⁻¹ | 254000 M⁻¹ s⁻¹ |  |  | 
Adapter protein comprising the 5B1Q D domain and a P26(Q26-V229) AFP polypeptide (designed binder, also called 6T1D(G8S, L21Q, K48E, N50S, I59L); not shown: His tag (purified on Ni-Sepharose)) MGSWDEFSRRLYAIEWQLYAQGGTEAELAAFEKEIAAFESELQAYKGEGSPEVEKLRELAAVIRENLQAYRHNQESQALAKRSCGLFQKLGEYYLQNAFLVAYTKKAPQLTSSELMAITRKMAATAATCCQLSEDKLLACGEGAADIIIGHLCIRHEMTPVNPGVGQCCTSSYANRRPCFSSLVVDETYVPPAFSDDKFIFHKDLCQAQGVALQTMKQEFLINLVKQKPQITEEQLEAVIADFSGLLEKCCQGQEQEVCFAEEGQKLISKTRAALGV | 3.22 µg/mL | 0.73 nM | 0.000136 s⁻¹ | 187000 M⁻¹ s⁻¹ | ~10 fold |  | 
Adapter protein comprising the 6K4C D domain and a P26(Q26-V229) AFP polypeptide (designed binder, also called 6T1D(D5A); not shown: His tag (purified on Ni-Sepharose)) MGSWAEFGRRLYAIEWQLYALGGTEAELAAFEKEIAAFESELQAYKGKGNPEVEKLREIAAVIRENLQAYRHNQESQALAKRSCGLFQKLGEYYLQNAFLVAYTKKAPQLTSSELMAITRKMAATAATCCQLSEDKLLACGEGAADIIIGHLCIRHEMTPVNPGVGQCCTSSYANRRPCFSSLVVDETYVPPAFSDDKFIFHKDLCQAQGVALQTMKQEFLINLVKQKPQITEEQLEAVIADFSGLLEKCCQGQEQEVCFAEEGQKLISKTRAALGV |  | 18 nM | 0.00353 s⁻¹ | 197000 M⁻¹ s⁻¹ |  |  | 
Adapter protein comprising the 8O3S D domain and a P26(Q26-V229) AFP polypeptide (designed binder, also called 6T1D(W16T); not shown: His tag (purified on Ni-Sepharose)) MGSWDEFGRRLYAIETQLYALGGTEAELAAFEKEIAAFESELQAYKGKGNPEVEKLREIAAVIRENLQAYRHNQESQALAKRSCGLFQKLGEYYLQNAFLVAYTKKAPQLTSSELMAITRKMAATAATCCQLSEDKLLACGEGAADIIIGHLCIRHEMTPVNPGVGQCCTSSYANRRPCFSSLVVDETYVPPAFSDDKFIFHKDLCQAQGVALQTMKQEFLINLVKQKPQITEEQLEAVIADFSGLLEKCCQGQEQEVCFAEEGQKLISKTRAALGV | 4.62 µg/mL | 28 nM | 0.00665 s⁻¹ | 235000 M⁻¹ s⁻¹ |  |  | 
Adapter protein comprising the 8W9C D domain and a P26(Q26-V229) AFP polypeptide (designed binder, also called wild type; not shown: His tag (purified on Ni-Sepharose)) MGSWDEFGRRLYAIEWRLYALGGSEAELAAFEKEIAAFESELQAYKGKGNPEVEKLREIAAVIRSNLQAYRHNQESQALAKRSCGLFQKLGEYYLQNAFLVAYTKKAPQLTSSELMAITRKMAATAATCCQLSEDKLLACGEGAADIIIGHLCIRHEMTPVNPGVGQCCTSSYANRRPCFSSLVVDETYVPPAFSDDKFIFHKDLCQAQGVALQTMKQEFLINLVKQKPQITEEQLEAVIADFSGLLEKCCQGQEQEVCFAEEGQKLISKTRAALGV |  | 5.2 nM | 0.000924 s⁻¹ | 177000 M⁻¹ s⁻¹ |  |  | 
5S5W D domain as MBP fusion (designed binder, not shown: large carriers) MGSWSEFNMRLDAIYERLTALGGSEAELAAFEKEIAAFESELQAYKGKGNPEVEWLRHSAARIRLELQAYRHN |  |  |  |  |  | binds | 
1J1K D domain as MBP fusion (designed binder, not shown: large carriers; small tags and cut ends, also called 8W9C (G8S)) MGSWDEFSRRLYAIEWRLYALGGSEAELAAFEKEIAAFESELQAYKGKGNPEVEKLREIAAVIRSNLQAYRHN |  |  |  |  |  |  | binds
4H2H D domain as MBP fusion (designed binder, not shown: large carriers; small tags and cut ends, also called 8W9C (K48I, K55N)) MGSWDEFGRRLYAIEWRLYALGGSEAELAAFEKEIAAFESELQAYKGIGNPEVENLREIAAVIRSNLQAYRHN |  |  |  |  |  |  | binds
6Z5E D domain as MBP fusion (designed binder, not shown: large carriers; small tags and cut ends, also called 8W9C (N50S)) MGSWDEFGRRLYAIEWRLYALGGSEAELAAFEKEIAAFESELQAYKGKGSPEVEKLREIAAVIRSNLQAYRHN |  |  |  |  |  |  | binds
